This is an account of results in patent publication US20250042994A1 (HAINAN SIMCERE ZAIMING PHARMACEUTICAL, published 2025).

The target of assay [1] is T1, human CD19 exon1-3-his protein (human, UniProt P15391 20-186, limits assumed).
T1 construct: made in HEK293E cells; also called membrane-distal end; not shown: His tag
T1 sequence (looked up): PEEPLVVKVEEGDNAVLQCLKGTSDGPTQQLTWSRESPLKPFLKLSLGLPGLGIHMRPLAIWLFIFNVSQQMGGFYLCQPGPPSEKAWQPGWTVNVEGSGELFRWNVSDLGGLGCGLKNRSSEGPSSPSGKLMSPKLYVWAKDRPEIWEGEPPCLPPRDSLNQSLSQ
The assay can be described thus: ELISA, coated at 2 ug/mL. As for the experimental part:
(§1) Human CD19-his protein (purchased from ACROBiosystems, catalog number: CD9-H52H2) was diluted with PBS to a final concentration of 4 μg/mL, and then added to a 96-well ELISA plate at 100 μl/well. The plate was sealed with a plastic film and incubated overnight at 4° C., the plate was washed 2 times with PBS the next day, and then a blocking solution [PBS+2% (w/w) BSA] was added for blocking at room temperature for 2 h. The blocking solution was poured off, and 100 nM gradiently diluted CD19 chimeric antibody or control antibody was added at 50 μl/well. After incubation at 37° C. for 2 h, the plate was washed 3 times with PBS. […] TMB substrate was added at 50 μl/well, and incubated at room temperature for 10 min, and then a stop solution (1.0 N HCl) was added at 50 μl/well. The OD450 nm values were read by an ELISA microplate reader (Multimode Plate Reader, EnSight, purchased from Perkin Elmer).
CD19 protein contains 4 exons in the extracellular region, in which exons 1-3 are located at the membrane-distal end and exon 4 is located at the membrane-proximal end. […] To identify the distribution of antigen binding epitopes of the chimeric antibodies, human CD19 exon 1-3-His (membrane-distal end) was used to coat at 2 μg/mL according to the ELISA method in example 5.1.

A further assay addresses T2, murine CD19 protein (murine, UniProt P25918 17-287, limits assumed).
T2 construct: bought protein; also called commercial murine CD19
T2 sequence (looked up): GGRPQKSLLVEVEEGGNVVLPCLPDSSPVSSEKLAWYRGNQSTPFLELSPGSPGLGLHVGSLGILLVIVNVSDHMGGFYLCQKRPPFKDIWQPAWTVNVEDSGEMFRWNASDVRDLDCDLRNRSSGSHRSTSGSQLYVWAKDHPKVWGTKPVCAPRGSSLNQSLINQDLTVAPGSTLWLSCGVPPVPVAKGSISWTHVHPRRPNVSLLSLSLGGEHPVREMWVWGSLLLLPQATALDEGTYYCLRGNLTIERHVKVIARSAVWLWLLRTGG
The assay can be described thus: ELISA, coated murine CD19. On the procedure:
as §1
In order to detect the species cross-binding activity of the chimeric antibodies, an ELISA plate was coated with commercial murine CD19 (ACROBiosystems, catalog number: 50510-M08H) and monkey CD19 (ACROBiosystems, catalog number: 90051-C08H), respectively, and the ELISA detection was performed according to the method in example 5.1.

In assay [2] the target is T3, Human CD19-his protein (human, UniProt P15391 20-291).
T3 construct: bought protein; also called human CD19 protein; recombinant human CD19-His; not shown: His tag
T3 sequence (looked up): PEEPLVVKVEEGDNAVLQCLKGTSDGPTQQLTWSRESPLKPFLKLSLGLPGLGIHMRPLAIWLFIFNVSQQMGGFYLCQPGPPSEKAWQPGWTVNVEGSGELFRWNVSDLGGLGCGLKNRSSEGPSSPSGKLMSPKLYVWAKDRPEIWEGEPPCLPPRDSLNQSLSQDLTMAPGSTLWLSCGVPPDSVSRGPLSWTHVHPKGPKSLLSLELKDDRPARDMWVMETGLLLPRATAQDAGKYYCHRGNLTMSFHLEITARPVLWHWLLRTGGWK
The assay can be described thus: ELISA, antibody at 10 nM. On the procedure: as §1

The target in assay [3] is T3, Human CD19-his protein. Nature of the assay: ELISA, antibody at 100 nM. As for the experimental part:
as §1

In assay [4] the target is T3, Human CD19-his protein. The assay can be described thus: ELISA, antibody at 0.01 nM. On the procedure: as §1
Assay [5] deals with T3, Human CD19-his protein. The assay can be described thus: ELISA, antibody at 0.10 nM. As for the experimental part: as §1
Assay [6] concerns the target T3, Human CD19-his protein. Nature of the assay: ELISA, antibody at 1.00 nM. As for the experimental part:
as §1

Assay [7] addresses T3, Human CD19-his protein. Nature of the assay: ELISA, antibody at 0.001 nM. On the procedure: as §1
Assay [8] has as its target T3, Human CD19-his protein. The assay can be described thus: ELISA, antibody at 0.0001 nM. On the procedure: as §1

B1: F4.49.11 (antibody, human IgG1, V domains shown)
VH: DVQLRASGPGLVKPSQSLSLTCSVTGYSITSGYYWNWIRQFPGNKLEWMGCISYDGTNNYNPSLKNRISFTRDTSKNQFFLNLNSVTTEDSATYYCARRVYYRYDGVVDYWGQGTSVTVSS
VL: ENVLTQSPAIMSASPGEKVTMTCSASSSVSYIHWYQQKSSTAPKLWIYDTSKLASGVPGRFSGSRSRNSYSLTISSMEAEDVATYYCFQGSGYPLTFGSGTKLEIK
notes: human-murine chimeric antibody, human IgG1
Take B1: the binding result (in assay [1]; with murine CD19 protein) was “no binding” each time. The OD450 was determined as 0.85 in the assay with Human CD19-his protein [2]; 1.16 with Human CD19-his protein [3]; 0.07 with Human CD19-his protein [4]; 0.13 with Human CD19-his protein [5]; 0.48 in the assay with Human CD19-his protein [6]; 0.05 with Human CD19-his protein [7]. Further, the OD450 with Human CD19-his protein [8] worked out at 0.04.

B2: F4.276.12 (antibody, human IgG1, V domains shown)
VH: EIQLQQSGPELVKPGASVKVSCKASGYAFSAYNMYWVKQSHGKSLEWIGYIDPYNGGTNYNQKFKGKATLTVDKSSSTAYMHLNSLTSEDSAVYYCARDGYEVTYWGQGTLVTVSA
VL: QIVLTQSPALMSASLGEEITLTCSASSSVTYMHWSQQKSGTSPRLLIYSTSNLASGVPSRFSGSGSGTFYSLTISSVEAEDAADYYCHQWSSYPWTFGGGTKLEIK
notes: as for B1
In the case of B2, the binding result (in assay [1]; in the assay with murine CD19 protein) was “no binding” throughout. The OD450 was found to be 1.2 with Human CD19-his protein [2]; 1.43 with Human CD19-his protein [3]; 0.13 with Human CD19-his protein [4]; 0.4 with Human CD19-his protein [5]; 1.07 with Human CD19-his protein [6]; 0.06 with Human CD19-his protein [7]. In the assay with Human CD19-his protein [8], this molecule registered an OD450 of 0.05.

B3: F6.2.9 (antibody, human IgG1, V domains shown)
VH: QVQLQQSGAELVKPGASVKISCKASGYAFSSYWMNWVKQRPGKGLEWIGQIYPGDGDTNYNGKFKGKATLTADKSSSTGYMQLSSLTSEDSAVYFCARSRITSVVDWYFDVWGTGTTVTVSS
VL: QIVLSQSPAILSASPGEKVTMTCRASSSVSYMHWYQQKPGSSPKPWIYATSNLASGVPARFSGSGSGTSYSLTISRVEAEDAATYYCQQWSSNPPTFGAGTKLELK
notes: as for B1
As for B3, the binding result (in assay [1]; with murine CD19 protein) was “no binding” each time. Further, the OD450 with Human CD19-his protein [2] turned out to be 0.26; in the assay with Human CD19-his protein [3], 0.33; with Human CD19-his protein [4], 0.06; with Human CD19-his protein [5] it was 0.08; in the assay with Human CD19-his protein [6], 0.13; with Human CD19-his protein [7] it was 0.06. This molecule yielded an OD450 in the assay with Human CD19-his protein [8] of 0.06.

B4: F5.11.2 (antibody, human IgG1, V domains shown)
VH: EVQLVESGGDLVKPGGSLKLSCAASGFTFSSYGMSWVRQTPDKRLEWVATISHGGSYTHYPDSVKGRFTISRDNAKNTLYLQMNSLKSEDTAMYYCVRLPITTVEAPYFFDYWGQGTTLTVSS
VL: DIQMTQTTSSLSASLGDRVTISCRASQDIRNYLNWYQQKPDGTVKLLIYYTSILHSGVPSRFSGSGSGTDYSLTINNLEQEDVATYFCQQGNTLYTFGGGTEVELR
notes: as for B1
B4: the binding result in the assay with murine CD19 protein is on record as “no binding”. Also, the OD450 with Human CD19-his protein [2] turned out to be 2.68; in the assay with Human CD19-his protein [3], 3.01; with Human CD19-his protein [4], 0.14; with Human CD19-his protein [5], 0.56; with Human CD19-his protein [6] it was 1.82; in the assay with Human CD19-his protein [7], 0.07. The molecule also gave an OD450 in the assay with Human CD19-his protein [8] of 0.06.

B5: F4.35.5 (antibody, human IgG1, V domains shown)
VH: EIQLQQSGPELVKPGASVKVSCKASGYAFTSYNMYWVKQSHGKSLEWIGYIDPYNGDTRYNQKFKGKATLTVDKSSSTAYMHLNSLTSEDSAVYYCTRSGTGRDYWGQGTTLTVSS
VL: QIVLTQSPAIMSASPGEKVTMTCSASSSISYMFWFQQKPGSSPRLLIYDTSSLASGVPVRFSGSGSGTSYTLTISRMEAEDAATYYCQQWSNYPYTFGGGTKLEMK
notes: as for B1
As to B5, the binding result (in assay [1]; in the assay with murine CD19 protein) was “no binding” throughout. Further, the OD450 was 0.65 with Human CD19-his protein [2]; 0.87 in the assay with Human CD19-his protein [3]; 0.07 with Human CD19-his protein [4]; 0.25 with Human CD19-his protein [5]; 0.5 with Human CD19-his protein [6]; 0.05 with Human CD19-his protein [7]. Further, the OD450 with Human CD19-his protein [8] turned out to be 0.05.

B6: F4.37.6 (antibody, human IgG1, V domains shown)
VH: QVQLQQSGAELARPGASVKLSCKASGYTFTSFWMQWLKQRPGQGLEWIGTIYPGDGDTRYTQKFKGKATLTADKSSNTAYMQLSSLASEDSAVYYCARGALSNYGGFAYWGQGTLVTVSA
VL: NIVLTQSPASLAVSLGQRATISCRASESVDSYGHSFMHWYQQKPGQPPKLLIYLASNLESGVPARFSGSGSRTDFTLTIDPVEADDAATYYCQQNNEDPWTFGGGTKLEIK
notes: as for B1
B6: the binding result (in assay [1]; with murine CD19 protein) was “no binding” each time. Moreover, the OD450 with Human CD19-his protein [2] is 1; with Human CD19-his protein [3], 1.08; with Human CD19-his protein [4], 0.2; with Human CD19-his protein [5] it was 0.6; in the assay with Human CD19-his protein [6], 0.8; in the assay with Human CD19-his protein [7] it was 0.09. The molecule also yielded an OD450 in the assay with Human CD19-his protein [8] of 0.07.

B7: F4.96.6 (antibody, human IgG1, V domains shown)
VH: EIQLQQSGPELVKPGASVKVSCKASGYAFSAYNIYWVKQSHGKSLEWIGYIDPYNSGTTYNQKFRGKATLTVDKSSNTAYMHLSSLTSEDSAVYYCTRDGDAMDYWGQGTSVTVSS
VL: EILLTQSPAIIAASPGEKVTITCSASSGVIYMNWYQQKPGSSPKIWIYDVSTLASGVPARFSGSGSGTSFSFTINSMEAEDVATYYCQQRSSYPYTFGGGTKLEIK
notes: as for B1
For the molecule B7, the binding result (in assay [1]; in the assay with murine CD19 protein) was “no binding” throughout. The OD450 was 1.16 with Human CD19-his protein [2]; 1.64 with Human CD19-his protein [3]; 0.11 with Human CD19-his protein [4]; 0.29 with Human CD19-his protein [5]; 0.91 in the assay with Human CD19-his protein [6]; 0.06 with Human CD19-his protein [7]. In addition, the OD450 in the assay with Human CD19-his protein [8] stood at 0.05.

B8: F4.58.6 (antibody, human IgG1, V domains shown)
VH: QVQLQQPGAELVKPGASVKLSCKASGYTFTSYWMHWVKQRPGQGLEWIGEIDPSDSYSNYNQKFKGKATLTVDKSSSTAYMQLSSLTSEDSAVYYCARSNYGSSYGYFDVWGAGTTVTVSS
VL: QIVLTQSPAIMSASPGEKVTMTCSVSSSLSYMHWYQQKPGTSPKRWIYDTSKLASGVPARFSGSGSGTSYSLTISSMEAEDAATYYCHQRSSYPTFGGGTKLEIK
notes: as for B1
Take B8: the binding result (in [1]; in the assay with murine CD19 protein) was “no binding” in each case. Also, the OD450 was 0.8 with Human CD19-his protein [2]; 0.94 in the assay with Human CD19-his protein [3]; 0.09 with Human CD19-his protein [4]; 0.3 in the assay with Human CD19-his protein [5]; 0.67 with Human CD19-his protein [6]; 0.05 with Human CD19-his protein [7]. Also, the OD450 with Human CD19-his protein [8] was found to be 0.05.

B9: F3.23.10 (antibody, human IgG1, V domains shown)
VH: EFQLQQSGPELVKPGASVKISCKASDYSFTDYNMNWVKQSNGASLEWIGIINPNFGSTSYNQKFKGKATLTVDQSSSTAFMQLNSLTSEDSAVYYCARSEYYGSSGFAYWGQGTLVTVSA
VL: DVVVTQTPLSLPVSFGDQVSISCRSSQSLVNSYGNTYLSWYLHKPGQSPQLLIYGISNRFSGVPDRFSGSGSGTDFTLKITTIKPEDLGMYYCLQGTHQPWTFGGGTKLEIK
notes: as for B1
For the molecule B9, the binding result with murine CD19 protein is “no binding”. Besides, the OD450 with Human CD19-his protein [2] is 1.85; with Human CD19-his protein [3], 2.14; with Human CD19-his protein [4] it was 0.09; in the assay with Human CD19-his protein [5] it was 0.39; with Human CD19-his protein [6], 1.27; with Human CD19-his protein [7], 0.06. Besides, the OD450 in the assay with Human CD19-his protein [8] came to 0.05.
